Test results reported in patent US20250313633A1.

Experiments:
[1] = target: human full-length B7H3 on MCF-7 cells (human) (UniProt Q5ZPR3); experiment: cell-based or functional assay
[2] = target: human full-length B7H3 on MCF-7 cells (human) (UniProt Q5ZPR3); experiment: FACS on MCF-7 cells; negative control
[3] = target: cynomolgus monkey B7H3 on transfected FlpinCHO cells (W3XX088-FlpinCHO.cProl.pool) (cynomolgus monkey); experiment: FACS on cynomolgus monkey B7H3-transfected FlpinCHO cell pool; negative control

human full-length B7H3 on MCF-7 cells (human), sequence (Q5ZPR3 29-534): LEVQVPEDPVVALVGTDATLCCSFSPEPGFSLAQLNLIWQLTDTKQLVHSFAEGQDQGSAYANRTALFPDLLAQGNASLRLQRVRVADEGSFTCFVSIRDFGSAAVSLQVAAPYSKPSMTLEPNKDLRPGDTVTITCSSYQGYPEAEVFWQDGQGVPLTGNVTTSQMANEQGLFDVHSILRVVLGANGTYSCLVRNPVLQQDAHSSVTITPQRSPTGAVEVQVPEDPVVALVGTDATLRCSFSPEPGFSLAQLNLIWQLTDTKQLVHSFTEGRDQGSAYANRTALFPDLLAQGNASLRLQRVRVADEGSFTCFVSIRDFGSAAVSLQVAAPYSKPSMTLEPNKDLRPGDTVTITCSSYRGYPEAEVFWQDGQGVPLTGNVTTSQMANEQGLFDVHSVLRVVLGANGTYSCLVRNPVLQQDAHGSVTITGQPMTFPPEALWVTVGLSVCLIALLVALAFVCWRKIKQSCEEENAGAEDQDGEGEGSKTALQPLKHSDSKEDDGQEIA

Substance Human IgG1 isotype antibody has an Internalization on MCF-7, Max MFI [1] of 21 MFI, a Max MFI [2] of 47.8 MFI and a Max MFI [3] of 6.67 MFI.
